Measurements from patent US7479478B2, “Human parathyroid hormone modifications, preparation and use” (The General Hospital Corporation, priority 1998, dated 2009).
“Also recorded” adds a separate entry of the source. No end group written: not given here.

What was measured:
[1] = target: T1, human PTH-1 receptors (Homo sapiens, UniProt Q03431); experiment: PLC activation (IP3 formation) in HKRK B7 cells; type: cell-based; conditions: for EC50: read-out: EC50 for PLC activation (IP3 formation); for IP3 Formation (% Maximum): % of maximal response to hPTH-(1-34); for PLC activation (IP3 formation), result in words: up to 1000 nM or 10 μM; for PLC activation, percent of basal: 1000 nM peptide
T1 construct: expressed in transfected cells
T1 sequence (Q03431 27-593): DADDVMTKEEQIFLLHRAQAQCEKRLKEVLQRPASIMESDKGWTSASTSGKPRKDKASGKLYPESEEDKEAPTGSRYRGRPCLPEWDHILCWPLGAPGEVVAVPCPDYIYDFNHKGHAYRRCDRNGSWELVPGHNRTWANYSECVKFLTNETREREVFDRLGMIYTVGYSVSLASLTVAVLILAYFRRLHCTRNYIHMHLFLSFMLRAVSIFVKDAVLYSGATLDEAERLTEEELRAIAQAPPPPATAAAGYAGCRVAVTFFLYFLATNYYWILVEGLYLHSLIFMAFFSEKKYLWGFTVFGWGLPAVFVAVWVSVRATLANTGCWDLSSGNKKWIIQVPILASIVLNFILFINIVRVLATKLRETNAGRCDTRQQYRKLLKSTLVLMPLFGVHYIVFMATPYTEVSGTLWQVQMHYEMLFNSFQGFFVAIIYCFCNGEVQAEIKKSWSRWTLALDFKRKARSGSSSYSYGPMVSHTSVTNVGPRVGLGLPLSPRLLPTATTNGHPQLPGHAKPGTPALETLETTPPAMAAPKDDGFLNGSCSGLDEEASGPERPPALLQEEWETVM
Experimental: (§1) HKRK B7 or EW5 cells (32), subclones of LLC-PKI renal epithelial cells that stably express human or rat PTH-1 receptors (950,000 and 320,000 receptors/cell, respectively), were maintained under 5% CO2 in air in Dulbecco's modified essential medium containing 7% fetal bovine serum (FBS) and 1% penicillin/streptomycin (GIBCO-BRL, Grand Island, N.Y.). HEK-293 and COS-7 cells were cultured similarly, except that 10% FBS was used in the medium. Cells were seeded into 24-well plates two days before assay at a density of 2-2.5×10^5 cells/well (HKRK B7 or EW 5 cells) or 6×10^5 cells/well (in 6-well plates) (HEK-293 cells). In experiments involving HEK-293 cells, DNA transfections were performed 24 hr after plating and inositol radiolabel was added 24 hr thereafter (see below). COS-7 cell transfections were performed as previously described (Gardella, T. J., et al., Endocrinology 132(5):2024-2030 (1993))
PLC was activated by PTH agonists in the presence of 30 mM LiCl at 37° C. for 30 min after 16 hr of labeling with [^3H]myo-inositol (3 uCi/ml) in serum-free medium containing 0.1% bovine serum albumin. The reactions were stopped by rapid aspiration and addition of cold 5% TCA. Water-soluble radiolabeled inositol trisphosphate (IP3) was isolated after ether extraction by ion-exchange chromatography (Guo, J., et al., Endocrinology 136(9):3884-3891 (1995)). In experiments involving HEK 293 cells, cells previously transfected with human PTHR cDNA (in the pcDNA1 expression vector HKRK) using Lipofectamine (Gibco BRL) were labeled with [^3H]myo-inositol and assayed as described above, except that total water-soluble [^3H]inositol polyphosphates were collected as a single fraction from the ion-exchange columns.

[2] = target: T1, human PTH-1 receptors; experiment: Intracellular cAMP accumulation (adenylyl cyclase, AC, activation) in HKRK B7 cells; type: cell-based; conditions: for Cyclic AMP accumulation (% Maximum): % of maximal response to hPTH-(1-34), HKRK B7; for AC activation (cAMP accumulation), result in words: HKRK B7 cells, compared with hPTH-(1-34) or parent peptide
Experimental: as §1, with “(1993)) Intracellular cAMP accumulation, PLC activation and PTHR binding affinity were measured as previously reported (Bringhurst, F. R., et al., Endocrinology 132(5):2090-2098 (1993); Guo, J., et al., Endocrinology 136(9):3884-3891 (1995)). Intracellular cAMP accumulation was measured in extracts of cells that were exposed to human PTH peptides in the presence of isobutylmethyxanthine (IBMX, 1 mM) at 37° C. for 15 min. After terminating the reactions by aspiration and freezing in liquid nitrogen, cell monolayers were extracted with 50 mM HCl and cAMP was measured using a radioimmunoassay kit (Dupont-New England Nuclear, Boston, Mass.).” for “(1993))”

[3] = target: T1, human PTH-1 receptors; experiment: Radioligand competition binding with 125I-[Nle8,21,Tyr34]rat PTH-(1-34) in HKRK B7 cells
Experimental: as §1, with “(1993)) Radioligand competition binding assays were performed at 2-8° C. for 6 hr using ^125I-[Nle^8,21,[…]]rat PTH-(1-34) (100,000 cpm/well) in the presence or absence of non-radioactive hPTH-(1-34) analogs. Cell layers were washed three times before solubilization for determination of cell-associated radioactivity.” for “(1993))”

[4] = system: membrane-bound PKCs; conditions: osteoblast-like ROS 17/2 cells; Neugebauer et al. 1995; cited from earlier work
[5] = target: T1, human PTH-1 receptors; conditions: HKRK B7 cells; Takasu and Bringhurst 1998; cited from earlier work
[6] = target: T1, human PTH-1 receptors; conditions: HKRK B7 cells; Takasu and Bringhurst 1998; cited from earlier work; remark: listed apart in the source

AVSEIQLMHNLGKHLNSMERVEWLRKKL-NH2 [[Ala^1]hPTH-(1-28)]
EC50 ([1]; HKRK B7 cells): 1000 nM

AVSEIQLMHNLGKHLNSMRRVEWLRKK [[Ala^1,Arg^19]hPTH-(1-27)]
Cyclic AMP accumulation (% Maximum) ([2]; 0.01 nM): −0.2 ± 0.1 % Maximum | Cyclic AMP accumulation (% Maximum) ([2]; 0.1 nM): 0.6 ± 0.3 % Maximum | Cyclic AMP accumulation (% Maximum) ([2]; 1 nM): 7 ± 0.6 % Maximum | Cyclic AMP accumulation (% Maximum) ([2]; 10 nM): 50 ± 5.1 % Maximum | Cyclic AMP accumulation (% Maximum) ([2]; 100 nM): 92 ± 15 % Maximum | Cyclic AMP accumulation (% Maximum) ([2]; 1000 nM): 99 ± 8.8 % Maximum | IP3 Formation (% Maximum) ([1]; 1000 nM, HKRK B7): 1.5 ± 4.8 % Maximum | IP3 Formation (% Maximum) ([1]; 10000 nM, HKRK B7): 6.9 ± 10 % Maximum

AVSEIQLMHNLGKHLNSMRRVEWLRKKL-NH2 [[Ala^1,Arg^19]hPTH-(1-28)]
AC activation (cAMP accumulation), result in words [2]: indistinguishable from that of hPTH-(1-34) | EC50 ([1]; HKRK B7 cells): 200 nM | fold improvement of EC50 for PLC activation by the Arg^19 modification ([1]; over [Ala^1]hPTH-(1-28), HKRK B7): 5 fold

GlyValSerGluIleGInLeuMetHisAsnLeuGlyLysHisLeuAsnSerMetGluArgVal GluTrpLeuArgLysLysLeu (GVSEIQLMHNLGKHLNSMERVEWLRKKL; listed as Homo sapiens) [[Gly^1]hPTH-(1-28)]
PLC activation (IP3 formation), result in words ([1]; HKRK B7 cells): selectively eliminated PLC signaling, apart from a weak response at 10 μM | binding affinity, result in words [3]: modestly impaired

SVSEIQLMHNLGKHLNSMRRVEWLRKKL-NH2 [[Arg^19]hPTH-(1-28)]
AC activation (cAMP accumulation), result in words [2]: unaffected | EC50 ([1]; HKRK B7 cells): 300 nM | PLC activation (IP3 formation), result in words ([1]; HKRK B7 cells): maximally activated | IC50 ([3]; read-out: apparent IC50 for binding): 100 nM

SerValSerGluIleGlnLeuMetHisAsnLeuGlyLysHis LeuAsnSerMetGluArgValGluTrpLeuArgLysLys (SVSEIQLMHNLGKHLNSMERVEWLRKK-NH2; listed as Homo sapiens) [hPTH-(1-27)]
stimulation of activity of membrane-bound PKCs [4]: incapable of stimulating

[Ala^1]hPTH-(1-34): hPTH-(1-34) with Ala^1 for Ser^1 [reference compound]
AC activation (cAMP accumulation), result in words [2]: indistinguishable from hPTH-(1-34) | PLC activation (IP3 formation), result in words ([1]; HKRK B7 cells): indistinguishable from hPTH-(1-34) | binding affinity, result in words [3]: indistinguishable from hPTH-(1-34)

[Gly^1]hPTH-(1-34): hPTH-(1-34) with Gly^1 for Ser^1 [reference compound]
AC activation (cAMP accumulation), result in words [2]: unchanged | PLC activity as % of the hPTH-(1-34) maximum ([1]; 1000 nM, highest concentration tested, HKRK B7 cells): 25% | binding affinity, result in words [3]: unchanged

[Tyr^0]hPTH-(1-34): hPTH-(1-34) with a tyrosine residue interposed at the N-terminus; purchased from Sigma (YSVSEIQLMHNLGKHLNSMERVEWLRKKLQDVHNF) [reference compound]
PLC activation, percent of basal ([1]; HKRK B7 cells): 105±5% of basal

desamino-hPTHrP(1-36): hPTHrP(1-36) with the α-amino group removed [reference compound]
PLC activation, percent of basal ([1]; HKRK B7 cells): 101±6% of basal

hPTH-(1-24): C-truncated human PTH peptide (SVSEIQLMHNLGKHLNSMERVEWL)
AC activation (cAMP accumulation), result in words [2]: only minimally active

hPTH-(1-25): C-truncated human PTH peptide (SVSEIQLMHNLGKHLNSMERVEWLR)
AC activation (cAMP accumulation), result in words [2]: nearly identical

hPTH-(1-26): C-truncated human PTH peptide (SVSEIQLMHNLGKHLNSMERVEWLRK)
stimulation of activity of membrane-bound PKCs [4]: incapable of stimulating

hPTH-(1-30): C-truncated human PTH peptide (SVSEIQLMHNLGKHLNSMERVEWLRKKLQD-NH2; UniProt P01270 32-61, looked up, fragment)
AC activation, previously reported [5]: fully activated | PLC activation, previously reported [6]: fully activated | stimulation of activity of membrane-bound PKCs [4]: incapable of stimulating

hPTH-(1-31): C-truncated human PTH peptide
AC activation, previously reported [5]: fully activated | PLC activation, previously reported [6]: fully activated

hPTH-(2-34): hPTH-(1-34) lacking residue 1 (VSEIQLMHNLGKHLNSMERVEWLRKKLQDVHNY) [reference compound]
AC activation (cAMP accumulation), result in words [2]: comparable in magnitude and sensitivity to that of hPTH-(1-34); also recorded: equipotent with hPTH-(1-34) | PLC activation (IP3 formation), result in words ([1]; HKRK B7 cells): did not elicit PLC activity

hPTHrP(1-36): human PTH-related peptide fragment 1-36 [reference compound]
PLC activation, percent of basal ([1]; HKRK B7 cells): 178±12% of basal
